Data taken from patent US20210198347A1 (Chugai, published 2021).

Experiments:
[1] = target: T1, Native human C1r enzyme (Comptech A102) (human, UniProt P00736 18-705); assay: SPR (BIACORE T200, 37 degrees C, pH 7.4), antibody captured by protein A/G, C1r 25 nM as a dimer
T1 construct: mature
T1 sequence (looked up): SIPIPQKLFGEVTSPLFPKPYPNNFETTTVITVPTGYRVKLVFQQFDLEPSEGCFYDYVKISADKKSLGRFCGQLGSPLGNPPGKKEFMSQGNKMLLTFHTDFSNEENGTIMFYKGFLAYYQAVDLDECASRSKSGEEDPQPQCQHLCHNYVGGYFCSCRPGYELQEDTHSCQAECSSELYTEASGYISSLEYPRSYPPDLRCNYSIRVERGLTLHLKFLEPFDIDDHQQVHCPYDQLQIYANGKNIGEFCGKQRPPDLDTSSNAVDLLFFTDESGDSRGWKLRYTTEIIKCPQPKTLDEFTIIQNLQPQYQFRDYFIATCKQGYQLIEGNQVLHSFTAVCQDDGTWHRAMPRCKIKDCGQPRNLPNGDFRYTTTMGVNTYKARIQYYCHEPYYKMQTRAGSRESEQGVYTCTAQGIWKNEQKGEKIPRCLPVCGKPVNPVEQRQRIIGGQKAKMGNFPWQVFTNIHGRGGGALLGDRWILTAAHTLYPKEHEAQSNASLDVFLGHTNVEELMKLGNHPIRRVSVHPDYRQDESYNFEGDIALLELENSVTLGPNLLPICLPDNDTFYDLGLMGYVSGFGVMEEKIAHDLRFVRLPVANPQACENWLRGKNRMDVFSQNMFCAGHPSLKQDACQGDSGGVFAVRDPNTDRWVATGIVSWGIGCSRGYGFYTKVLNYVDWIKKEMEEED
Procedure: The binding specificities of human C1r CUB1-EGF-CUB2 binders are determined at 37 degrees C. using BIACORE® T200 instrument (GE Healthcare). Recombinant Protein A/G (Pierce) is immobilized onto all flow cells of a CM4 sensor chip using an amine coupling kit (GE Healthcare). Antibodies and analytes are prepared in 7(+) buffer (20 mM ACES, 150 mM NaCl, 1.2 mM CaCl₂, 0.05% Tween 20, 1 mg/mL BSA (IgG-free), 1 mg/mL CMD, 0.005% NaN₃, pH 7.4). Each antibody is captured onto the sensor surface by protein A/G. Antibody capture levels are aimed at 100 resonance unit (RU). Native human C1r enzyme (Comptech A102) (at 25 nM as a dimer) or recombinant human C1r CCP1-CCP2-SP-FLAG (at 50 nM as a monomer) is injected, followed by dissociation. Sensor surface is regenerated each cycle with 10 mM Glycine-HCl pH 1.5. It may be determined that C1r CUB1-EGF-CUB2 binders bound to the native human C1r enzyme , but not recombinant human C1r CCP1-CCP2-SP-FLAG, which is a truncated protein lacking the CUB1-EGF-CUB2 domain of C1r.

[2] = target: T2, recombinant human C1s CCP1-CCP2-SP-His (human, UniProt P09871 292-688); assay: SPR (BIACORE T200, 37 degrees C, pH 7.4, 1.2 mM CaCl2), antibody captured by protein A/G
T2 construct: Truncated protein lacking the CUB1-EGF-CUB2 domain; also called human C1s CCP1-CCP2-SP M292-D688
T2 sequence: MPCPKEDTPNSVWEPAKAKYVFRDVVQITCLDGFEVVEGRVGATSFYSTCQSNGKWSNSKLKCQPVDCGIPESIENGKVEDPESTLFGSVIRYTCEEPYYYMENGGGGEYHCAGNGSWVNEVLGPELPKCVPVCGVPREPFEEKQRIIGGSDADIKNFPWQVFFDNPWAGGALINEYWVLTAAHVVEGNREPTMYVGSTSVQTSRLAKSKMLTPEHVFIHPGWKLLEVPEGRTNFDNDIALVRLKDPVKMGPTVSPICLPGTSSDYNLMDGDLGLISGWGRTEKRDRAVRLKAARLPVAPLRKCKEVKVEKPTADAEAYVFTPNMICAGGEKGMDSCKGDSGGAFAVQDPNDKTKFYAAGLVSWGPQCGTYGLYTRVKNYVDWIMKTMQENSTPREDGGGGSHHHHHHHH

Binder | binding result [1] | binding result [2]
COR0067ff-SG1148 (antibody, human IgG1, kappa, V domains shown, Anti-C1r antibody) VH: QSLEESGGGLVQPEGSLTLTCKASGIDFSSNAMCWVRQAPGKGLEWIGCIYTGSTTIWYASWAKGRFTISKTSSTTVTLQLNSLTVADTATYFCARRDSSSGYAFKLWGPGTLVTVSS VL: DIVMTQTPSSVSAAVGGTVTIKCQASENIYSNLAWYQQKSGQPPNLLIYGASTLESGVPSRFKGSGSGTEFTLTISDLECADAAIYYCQCTYDDSSTFGGGTKVEIKR | binds | 
COR0338gg-SG1148 (antibody, human IgG1, kappa, V domains shown, Anti-C1r antibody) VH: QSLEESGGGLVQPEGSLTLTCKASGIDFSSNAMCWVRQAPGKGLEWIACIYTGSTTIWYATWAKGRFTISKTSSTTVTLQLNSLTVADTATYFCARRASSSGYAFKLWGPGTLVTVSS VL: DVVMTQTPFSVSAAVGGTVTIKCQASESIYSNLAWYQQKPGQPPNLLIYGASTLESGVPSRFKGSGSGTEFTLTISDLECDDAAIYYCQCTYDDSSTFGGGTKVEIKR | binds | 
COR0011bb-SG1148 (antibody, human IgG1, kappa, V domains shown, Anti-C1r antibody) VH: QSLEESGGRLVTPGTPLTLTCTASGFTFSGYYMCWVRQTPGKGLEYIGIIASSGNTYYANWAKGRFTISKTSSTTVDLKMTSLTTEDTATYFCAKPESDYVNGMGLWGPGTLVTVSS VL: DIVMTQTPASVSDPVGGTVTIKCQASQSIYNLLSWYQQKPGQRPKLLIYDASKLASGVPSRFKGSGYGTDFTLTISDLGCADAATYYCQSNYGYSRTDDTFFYGFGGGTKVEIKR | binds | 
COR0058bb-SG1148 (antibody, human IgG1, kappa, V domains shown, Anti-C1r antibody) VH: QSVEESGGRLVTPGTPLTLTCTASGFDISNYNMQWVRQSPGKGLEWIGIIWSGGYTDYANWAKGRFTISATSTTVDLKSTSPTTEDTATYFCARQGANFGDYTVDLWGPGTLVTVSS VL: AYDMTQTPASVEVAVGGTVTIKCQASQSIRSSLAWYQQKPGQRPKLLIYRASTLASGVSSRFKGSGSGTQFTLTISGVECADAATYYCQQGYSNINVDNTFGGGTKVEIKR | binds | 
COR0278bb-SG1148 (antibody, human IgG1, kappa, V domains shown, Anti-C1r antibody) VH: QSLEESGGRLVTPGTPLTLTCTASGFSLSSYDMTWVRQAPGKGLEWIGIIYTLGSAYYASWAKGRFTISRTSTTVDLKMTSPTTEDTATYFCARGGDSYGAVDTAFDLWGPGTLVTVSS VL: AQVLTQTPSPVSAAVGGTVTISCQSSPSVYSNYLSWYQQKPGQPPKLLIYRASRLASGVPSRFKGSGSGTQFTLTISEVQCDDAATYYCQGYFGNGINAFGGGTKVEIKR | binds | 
COR0208cc-SG1148 (antibody, human IgG1, kappa, V domains shown, Anti-C1r antibody; also called COR208; COR208cc(-SG1148)) VH: QSVEESGGRLVTPGTPLTLTCTVSGFSLSNYYMNWVRQAPGKGLEWIGIIASDDNTWYASWAKGRFTISKTSTTVDLKITSPTTEDTATYFCARDLDVGYGSGWYDLWGQGTLVTVSS VL: AAVLTQTPSPVSVAVGGTVTINCQASQSVYNNNYLAWYQQEPGHRPKLLIYRASKLASGVPSRFSGSGSGTQFTLTISGVQCDDAATYYCLGGYDDFTDTTFGGGTKVEIKR | binds | 
COR0212bb-SG1148 (antibody, human IgG1, kappa, V domains shown, Anti-C1r antibody) VH: QEQLKESGGGLVTPGGTLTLTCTASGFSLSSYDMSWVRQAPGKGLDWIGIINTGGSAYYATWAKGRFTISKTSTTVDLKITSPTTEDTATYFCGRKINDAFDPWGPGTLVTVSS VL: AQVLTQTPFSVSAAVGGTVTINCQASESISSNLAWYQQKPGQPPKLLIYDASDLASGVPSRFKGSGSGKQFTLTISGVQCDDAATYFCQHGWIYDTIDSNCFGGGTKVEIKR | binds | 

Continued, values first:

binding result [1] | binding result [2] | Binder
 | no binding (tested: 100 nM) | COS0631gg-SG1148 (antibody, human IgG1, kappa, V domains shown) VH: QSVEESGGRLVTPGTPLTLTCTVSGFSLSRYSMGWVRQAPGKGLEWIGIIYADGGAYYASWAKGRFTISKTSTTMDLKVTSPTTEDTATYFCARGQFINSNEFFNPWGPGTLVTVSS VL: QVLTQTASSVSAVVGGTVTINCQASQSLHNNKNLAWYQQKPGQPPRLLIYYASTLASGVSSRFKGSGSGTQFTLTISDLECDDAATYYCAGEFSCSNGDCNAFGGGTKVEIKR
 | no binding (tested: 100 nM) | COS0499ee-SG1148 (antibody, human IgG1, kappa, V domains shown, also called COS499; COS499ee(-SG1148)) VH: QSLEESGGRLVTPGTPLTLTCTASGFSLSNYNMAWVRQAPGKGLEWIGIIETTTNTYYARWARGRFTISKTSSTTVDLQIASPTTEDTATYFCGRRVSNSHDLWGPGTLVTVSS VL: AYDMTQTPASVSAAVGGTVTINCQASQTIGGWCAWYQQKPGQPPKLLIYKASTLASGVSSRFKGSGSGTEFALTISDLECDDAATYYCQHGYYTSSTIENTFGGGTKVEIKR
 | no binding (tested: 100 nM) | COS0547gg-SG1148 (antibody, human IgG1, kappa, V domains shown) VH: QSLEESGGRLVTPGTPLTLTCTASGFSLSSYHMDWVRQAPGKGLEWIGIITYTGDTYYATWAKGRFTISKTSSTTVDLKMASLTTEDTATYFCARRQYDAYNVWGPGTLVTVSS VL: AYDMTQTPASVEVAVGGTVTIKCQASQSINNYLAWYQQKPGQPPKLLIYYASTLASGVPSRFKGSRSGTEFTLTISGVECADAATYYCQHGYYTSSNIDSVFGGGTKVEIKR
 | no binding (tested: 100 nM) | COS0448oo-SG1148 (antibody, human IgG1, kappa, V domains shown, Rabbit B-cell derived variable regions; also called COS448; COS44800(-SG1148)) VH: QSVEESGGRLVTPGTPLTLTCTVSGFSLSNYGMIWVRQAPGEGLEYIGFVSGSGSAYYANWVKGRFTISKTSTTVDLKMTSLTTEDTATYFCARGAYNTDSYSYSLYYGMDLWGPGTLVTVSS VL: QIVMTQTPASVEVAVGGTVTIKCQASQSIYSYLSWYQQKPGQPPKLLIYGASTLASGVPSRFKGSRSGTEFTLTISDLECADAATYYCQSNYATTTTYGTFGGGTKVEIKR
binds |  | COR0205gg-SG1148 (antibody, human IgG1, kappa, V domains shown, Anti-C1r antibody; also called COR205gg(-SG1148)) VH: QSLEESGGGLFKPTDTLTLTCTVSGFSLSSNAMSWVRQAPGKGLEYIGIIYLTGVTYYATWAKGRFTISKTSTTVDLKITSPTTEDTATYFCAGGEFSLWGPGTLVTVSS VL: DIIMTQTPASVEAAVGGTVTIKCQASQGIDNYFSWHQQKPGQPPKLLIYKASTLASGVSSRFKGSGSGTEFTLTISDLECDDAATYYCQCTYGYNINDNYGNAFGGGTKVEIKR
 | no binding (tested: 100 nM) | COS0637cc-SG1148 (antibody, human IgG1, kappa, V domains shown) VH: QSLEESGGRLVTPGTPLTLTCTASGFSLSAYAMNWVRQAPGKGLEWIGLIYGSGSTFYASWAKGRFTISKTSTTVDLKMTSLTTEDTATYFCARGRSVNYNSDFKLWGPGTLVTVSS VL: QVLTQTPSSVSAAVGGTVTINCQASQSLHDKKNLAWYQHKPGQRPNLLIYGASTLESGVPSRFKGSGSGTEYTLTISDLECDDAAAYYCQGEFSCSSADCNTFGGGTKVEIKR
